# Literature values in US11749377B2, “Method and electronic system for predicting at least one fitness value of a protein, related computer program product” (PEACCEL, priority 2015, dated 2023).
# Tests used:
# [1] = target: T1, rat GLP-1 receptor (Rattus norvegicus, UniProt P32301); conditions: Log(IC50), binding affinity to rat GLP-1 receptor
# T1 sequence (P32301 22-463): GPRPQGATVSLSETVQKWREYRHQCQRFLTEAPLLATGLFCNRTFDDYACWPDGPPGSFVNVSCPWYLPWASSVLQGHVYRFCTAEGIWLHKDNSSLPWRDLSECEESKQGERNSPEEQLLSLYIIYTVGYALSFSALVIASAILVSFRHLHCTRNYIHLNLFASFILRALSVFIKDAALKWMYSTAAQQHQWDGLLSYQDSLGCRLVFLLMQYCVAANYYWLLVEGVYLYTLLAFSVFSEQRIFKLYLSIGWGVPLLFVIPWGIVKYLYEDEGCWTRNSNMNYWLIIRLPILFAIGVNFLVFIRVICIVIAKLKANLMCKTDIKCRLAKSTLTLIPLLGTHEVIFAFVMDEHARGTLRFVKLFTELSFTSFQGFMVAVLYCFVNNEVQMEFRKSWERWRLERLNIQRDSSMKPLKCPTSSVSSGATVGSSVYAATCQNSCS
# [2] = target: T2, GLP-1 receptor (Rattus norvegicus, UniProt P32301); conditions: Log(EC50), adenylate cyclase activity
# T2 sequence (P32301 22-463): T1 sequence (P32301 22-463)
Substance,logIC50 [1],logEC50 [2]
GLP1 S12A: single mutant analog of human GLP1,−0.1675,0.301
GLP1 R30A: single mutant analog of human GLP1,0.6628,0.8451
GLP1 L14A: single mutant analog of human GLP1,0.2304,0.8451
GLP1 G29A: single mutant analog of human GLP1,0.1139,0
GLP1 T5A: single mutant analog of human GLP1,0.5441,0.699
GLP1 A18R: single mutant analog of human GLP1,−0.05061,1.23
GLP1 T7A: single mutant analog of human GLP1,1.5563,1.813
GLP1 W25A: single mutant analog of human GLP1,0.2041,1.176
GLP1 Q17A: single mutant analog of human GLP1,0.04139,0.699
GLP1 L26A: single mutant analog of human GLP1,0.6721,0.6021
GLP1 D9A: single mutant analog of human GLP1,1.041,
GLP1 V27A: single mutant analog of human GLP1,0.1461,0.301
GLP1 K20A: single mutant analog of human GLP1,0.1461,1.114
GLP1 S8A: single mutant analog of human GLP1,−0.1192,0.699
GLP1 F22A: single mutant analog of human GLP1,2.545,3.415
GLP1 Y13A: single mutant analog of human GLP1,0.5441,1.74
GLP1 S11A: single mutant analog of human GLP1,−0.3372,0.4771
GLP1 G16A: single mutant analog of human GLP1,−0.2441,0.6021
GLP1 V10A: single mutant analog of human GLP1,0.2304,0.8451
GLP1 E15A: single mutant analog of human GLP1,0.6128,1.813
GLP1 A2S: single mutant analog of human GLP1,0.3802,0.301
GLP1 E3A: single mutant analog of human GLP1,0.9085,0.301
GLP1 G4A: single mutant analog of human GLP1,1.771,
GLP1 F6A: single mutant analog of human GLP1,1.5563,1.519
GLP1 I23A: single mutant analog of human GLP1,1.398,1.8451
GLP1 K28A: single mutant analog of human GLP1,0.2304,0.301
